Results reported in patent US20100015137A1 (IMMUNEX, published 2010).

Target: T1, full length human TRAIL receptor (TRAIL-R) (human, UniProt O14763 56-440)
T1 construct: The signal peptide is only predicted (residues 1-51)
Assay: flow cytometry on transfected CV-1/EBNA cells, LZ-TRAIL at 5 µg/ml
Experimental: CV-1/EBNA cells were co-transfected with pDC409-TRAIL-R together with pDC409-CrmA, or with pDC409-CrmA alone. The cells were cultured in DMEM supplemented with 10% fetal bovine serum, penicillin, streptomycin, and glutamine. […] The cytometric analysis was conducted on a FACscan (Beckton Dickinson, San Jose, Calif.).

B1: LZ-TRAIL (leucine zipper peptide fused to the N-terminus of a soluble human TRAIL polypeptide) (ligand, UniProt P50591 95-281, looked up)
chain: TSEETISTVQEKQQNISPLVRERGPQRVAAHITGTRGRSNTLSSPNSKNEKALGRKINSWESSRSGHSFLSNLHLRNGELVIHEKGFYYIYSQTYFRFQEEIKENTKNDKQMVQYIYKYTSYPDPILLMKSARNSCWSKDAEYGLYSIYQGGIFELKENDRIFVSVTNEHLIDMDHEASFFGAFLVG
notes: range 95-281; also called LZ-huTRAIL; not shown: modified leucine zipper that allows for trimerization
- binding result: binds
